Here are results for 18 sequences from a protein production outcome set (Wang et al. 2014).

This series is described as follows: label from the status in PepcDB records.

On to “MTTGPALSSSEEGLMSEMPPAWCHTARADHSTPGTSPEMIPDTQGHWMPLRSRGLGALPGAFQAPQPLLSRLRHRLAPPRIVGTVSCRRLRTIVALGAARDSCTVGTQGRPGNSDLPAFPTSQVVRGKMGPGSQRTLVLLLLLLASPGARAFQSCLNKQQLLTTVRQLQQLLKGQETRFTEGIRNMKSRLTALQNTVSKMTPDAPPVSCPALDAPPNGKKFGSKYLVDHEVHFTCNPGFQLVGPSSVVCLANGTWTGEQPRCRDTSECSSQPCHNGGTCVEGVHHYRCICPPGKTGNRCQHQTQAAAPGGVAGDSAYSRAPRCAQVEREQHCSCEAGFHLSGTAGGHSVCQDVNECEIYGQEGRPRLCMHACVNTPGSYRCTCPSGYRILADGKSCEDVDECAGPQHMCPRGTTCINTGGGFQCVNPECPEGSGNISYVKTSPFQCERNPCPMDSRPCRHLPKTISFHYLSLPSNLKTPITLFRMATASVPGHPGPNSLRFGIVGGNSRGHFVMQRSDRQTGELILIQTLEGPQTLEVEVDMSEYLERSFQASHVSKVTIFVSRYDF”, for which the protein production entry is recorded as “failed”.

Turning to “MTTIFPPIPDRLRPLLRIAFMCGILATLPILCDVYAADEPPAARDEARPEEAAEPAATSAPAPAEQPVTFAITTILVERNTLFASDRLQEVMAPFVGDGKTADDVEKAREALEKFHHDQGYPTVIVNIPEQSVEEGIIRLQVVEQRINTVTVTGNRYFSREMILGKFPSLQPGGIPHVPTLQAEFTKAGRNPDLKITPAMAPSREVGYVDVELKIEEKLPLHGSLELNNRSSHDTSALRLNGAIRYDNLWQREHSVGLQYQTAPEKTREVQILSGSYVLPDPWHDDRRIVFYGVWSDTNTFASLGDMQVLGKGIIVGGRYLIPLAGKGLYNHSATLGIDYKRFDESAGFKTRVSYLPLSTAYDASLQDSTGYTLFNAGLNFAFRGAVTDQSEMAVKRSEAKGNYLAAILGLERQQKLPLGMGLRARIDGQLSSEPLIPNEQFVAGGMDSVRGYKESEALGDNGFHGTVELRVPDITLGSAMSMTPYVFYDMAAVELKKPLPGENRSQTLQGTGAGVRGMLFKFLEYQVDFAVALSDSDRIKEGDQRVHFRVSCAF”, the protein production result is on record as “failed”.

With “MTTIRRFSCNDLLRFTSVNLDHLTETFNMSFYMTYLARWPDYFHVAEGPGNRVMGYIMGKVEGQGESWHGHVTAVTVSPEYRRQQLAKKLMNLLEDISDKIDKAYFVDLFVRASNTPAIKMYEKLGYIIYRRVLRYYSGEEDGLDMRKALSRDVEKKSVIPLKRPITPDELEYD”, the protein production entry is recorded as “failed”.

On to “MTTKAVLISSGVATVALLLKLSVPVAVDFSVSRAPILWSSLLSWLKPPYLYVVTNGIIITIVASSKYYRSHHDRDEEDEIVVYGGGGYKIQTEEPIVNQHQASPRILEVKDLDTGAHFGFVVANLEAEELESEAVTAVVFDDEEEEKKIIDSAATAEDEIEEELKSVIMVENSDLVESDVIPPPMMIESENLPPIEKPLVTSRFGHRKLMKASQEGGRALRVTKPKKNETLENTWKMITEGKSTPLTRQLYRRSDTFGRGDSGGVDGEVKPVYKKSDTFRDRTNYYQLAETAKVRKEPSLSQEELNRRVEAFIKKFNEEMKLQRMESLRQYKEITSRGV”, for which the protein production entry is reported as “failed”.

In the case of “MTTKPRLCTALLTLAIAVSASAPVLAQSMAGGSAKNRYANQTKLDPYPPEGGWQGLANLLEAAKPGVDTRLDPTPSQITDRIEELLNRGANEEALSLIERREAAIKGQRGADVQLMFQHARALAALGRADEAIAVYSDMTTQFPELPEPWNNLAALYASRGELERAQDSLQMALRANPDYAAARANLGDIQLMMALRTYRQEEARGVPGMKARVEEIESLLKDKQPK”, the protein production entry was “failed”.

“MTTKRVKKMGKEEMKEMFDLVIYAFNQEPTAERQERFEKLLSHTQSYGFLIDEQLTSQVMATPFQVNFHGVRYPMAGIGYVASYPEYRGEGGISAIMKEMLADLAKQKVALSYLAPFSYPFYRQYGYEQTFEQAEYTIKTEDWPRVKRVPGTIKRVSWADGKEVIKDVYLENQRAHSGGVIRETWWLDYTLNRASKPNNQAIYYSSEGKAEGYVIYRIAAGTFEIVEWNYLTNTAFKALAGFIGSHSGSVQSFHWINGFAGKDLNDLMPTPAASVKILPYMMARIVELQTFLEKYPFQSGEKETYSLEIEDSYGPWNEGIWTITIDEQGKATVTKGAAEKEGTAALKADIQTWTQLFLGYRSAETLSFYERLQGDATIAQRLGQRLVKGMPILEDYF”: the protein production result was “not failed”.

For “MTTMQSRERLVKWLQDAYAMEKEAETMMAAMASRIEHYPELKRRIEQHVEETQQQSAGVQRCLELLNGSIPTAKGMLSSVLASMHAAGNSMMTDEVTKGVGISYAFEHLEIASYRALVVAARSAGEQEVAQICEDILQQEIEMAEWLIEHQEAIVVAFLEREQLEGVTAKR”, the protein production result is “not failed”.

Turning to “MTTPPARTAKQRIQDTLNRLELDVDAWVSTAGADGGAPYLVPLSYLWDGETFLVATPAASPTGRNLSETGRVRLGIGPTRDLVLVEGTALPLEPAGLPDGVGDTFAEKTGFDPRRLTTSYLYFRISPRRVQAWREANELSGRELMRDGEWLVTD”, the protein production entry is reported as “not failed”.

Turning to “MTTPSRRRLMRDFKKLQEDPPAGVSGAPTEDNILTWEAIIFGPQETPFEDGTFKLSLEFTEEYPNKPPTVKFISKMFHPNVYADGSICLDILQNRWSPTYDVAAILTSIQSLLDEPNPNSPANSLAAQLYQENRREYEKRVQQIVEQSWLNFGENEGDAVLKDDVEIEEIAAPGANDADDDRMDEGASGSNA”, the protein production result is listed as “not failed”.

As for “MTTPTPIRMLILEDSEDDLLLLLREVRRGGIDPAYERADSAAGLRRALDAGEWDVIVSDYNMPQFGALPALDIVKERGLDVPFIIVSGKIGEDLAVAAMKAGAHDYLMKGNLSRLVPAIERELREADERRRRRQAEEAMHAQFNQISTIFDSLNALVYVVDMNSYELLYLNKFGAQLFGEAWEGRTCHDVLHGGRSTPCDFCTNDKLIMDGKALPPYIWEYQNSISSRWYQCIDKAIRWTDGRMVRMEIAIDITERKEMERMKDEMISAVSHEMHTPLTAMMGFTEFLLENEVDRDLQKNYLKTIYRETERLNELITNFLQLQRLKASMVKFRITPVAVGLLVADVVSLYAAASKKHRIVVECPPDLPPVRGNEEQLYQAISNLVSNAIKYSPDGGDVTIGASAAADIVTLWVRDQGIGISPEFQEKIFERFFRVDNSDRRKVGGAGLGLTLVREIVATHGGRSWVESSPGKGSTFFISLPAMT”, the protein production result was “failed”.

On to “MTTPVNGSVIPLISLRESRMPSLTDGAIRRALKQVEQTQKPVTLADGEGRGIGRLILFVRPMPTRVIAYWLVQQWRAGARSRKKIGAYPSMSLNQARNIFDRDFADAIQKGRSIKALGDTRAGTLGDLFDAYIAHLKSSGKKSWKEAEKGLNKVADTLGRHRPARDIEPHEIVDIIRPIYGRGTRSMADHVRGYLRAAFSWGIKSEHDYRHASPRRFGLTKNPAAGIPSEPYVPGNRWLDEEEFLRLYRWLECPDTPVHPPYTRAVRLLMLTGQRVEEIARLHIAQWDAKERIIDWSTTKNGKPHAIPVPDLAAELLESIKPNNYGWFFPSAFDPSKPVAHNTLYSFMWRQRERGVIPVVTNRDLRRTWKTLAGKAGLSKEIRDRLQNHTLQDVSSKAYDRWNYMPEKRAAMKQWNSFVRSVLTPDRLTSAA”, for which the protein production result was “failed”.

For “MTTQKLLSDCQFCSVVSKNNGEDPIGTANTSDNWLVLEAALPWTEEHLHSDRILSQIHDLFHELENRHIPVIPIAIAPDREYSVPGYVRALHYKRPTKSFAEFEKQEFLIPESQIGQFTSGFLEYPNDLDQFQTYQQPKNHIREIMVCTHGNVDVACSRFGYPIYQNLRQNYAAKSAGQLRVWRCSHIGGHQFAPTLFDLPTGQFWGHIEPEILDVLVWRNSPVKQLRQFYRGWSGMTKFEQIVEREIWMQHGWEWLQYQKSGQVLAKDTTNDEWNADWAEVRIDFTSPDNSIQGSYLARVEACSQVMTVFNSGKEQPLETVKQYRVSQLTQQLINI”, the protein production entry is “failed”.

As to “MTTQMPIASPRTEFYERAFGGFHDQAVAEVRKETYGEDLGQNDWSTVDEMRQFSQWLELSPQSHLLDVCSGSGGPALFLARNSGCRVTGVDLHPDALQTGRQLAQALELHDRSQFVECDVRQRMPFPDGTFDALWCIDSVIHIPDRLALLREWCRLLKPGGRFLYTDPTLVTGMVSKEEILLRGTPGYFLYTPIGLNERLIEQAGLRLDMQADLTHSITELSERWHAAREKRCAVLTATEGEEAFARMQSFLTATHRVSVEGRLSRWVFVGVRP”, the protein production result is “failed”.

As for “MTTQTIDSAPHATWFVGASYGGTDDQMPRFLAEGIWENGYDDKLLEVVRSMRPGERIAIKSSYTRKHGLPFDSRGRAVSVMGIKAVGTITENLNDGKRVKVDWAKVEPVREWYFYTHRATIWRVLPGEWMNDALIAFAFDGKPQDVDRFRNEPFWRERYGTTSPEKQRFEWTDFYEAVAEKLLAHADDRTPLIEGIHEIASRVPGLTYLQDKFPDGTSGPLRDICPFTTMGTFNRSMTDANRKTLAGELAKLLGVTVPVPPSFEGIPVLNNQRSWFFAYADKRGAGDIDALWKVFVAASKMVDGDQLDTRDAFIRAYDEATQVWGVAWNLSTGLYWAHPWEFLTLDSQSRHYINKRLGLNVAISGQQGPCDGRAYLKLLDDLRSRFGEDGYPVHSFPDLSLASWMYKDPVDEPVPAGDIGTNAGAEQETEGEVREAFQVAAPIVPYSVEDILKDGCFLERAEIDRLLDRLRTKKNLILQGPPGTGKTWLAKRLAFALMGQKDDSKVRAVQFHPNLSYEDFVRGWRPTGEGKLSLADGVFMEAIKAASKDPSSKFVVVIEEINRGNPAQIFGELLTLLEAGKRTPNEALELCYPDADGKRRPVHIPENLYVVGTMNIADRSLALVDLALRRRFAFVGLEPRLGQVWRDWVVKECAVDPGLVADIERRIAELNDQIAADARLGKQFRIGHSYVTPAHRLEAGDTKKWFLQVVETEIGPLLDEYWFDAPDEAQKAIARLTQGWLEHHHHHH”, the protein production result is recorded as “not failed”.

As for “MTTSIGGLFFNLVALSLLSAIGLGVVHGITYSKWMPLLGNNATFGIHKFSIQVNVKECIKGCMLAILTMVPFIIVIGIMIAPVFQQLMMMTMLGGSDAGSEFVLQYYPQIMASYFLYFVAILVFASYLYVTLRNLFLNNLTLANGTIRFHSSVTAIGMLLRMLAVLMGSSITCGLAYPWLKMWMVSWIANNTHVQGDLDSLELTNDDKPQDSGSLMWISRGIMPYVPFI”, the protein production result is on record as “failed”.

Consider “MTTTGHVHFYIGTYTNPPSTSTSTGIARLSLNTETGELTRLDDVVVQRNPSYLTTTEHGLYTFSEMDRNEGTELAFFRGSESVSLPINGDYPCHLDIKEPLLAVANYGSGNVSVFQLDRDGKPLGLLADLYVDGCGPNLERQTSPHAHQVTFLKHSHQLVVVDLGSDSVLIYDYDAQPPDFSLSQVIHLPAGSGPRHVVFNQQESTAYVVCELSETLIVLVKHQDKWLISNQTELLEGEENQQAAAAIRLSQDETFLYVSCRAQNKISMFDVSGDTPKRRAAIHCEGVFPRDFVLSHDQKWLLVANQHSNNVVSFRRNPQTGEITPTGYDCEIGSPVCIVEQPLLEHHHHHH”, for which the protein production result is listed as “failed”.

For “MTTYLIIGANRVGQLVARQLATESATVRLLHDGKETLPSDLATQVTELTGDLTQEATYTAALQDQPIIFSALTGMDVDLAFEALFDAQYHQRLTFQRFVMLSTAGVDQEVTGDLAYPGITDVAEYLKQQRYAAKLVDEAEFPYTILRPVTLADSPRRDPQIIKEGAAVPAGTVSRETVAQVAVSLLQAGGADYQSLAICLEHHHHHH”, the protein production entry is “failed”.

As to “MTTYTFDQVEEAIEQLYPDFTINTIEISGEGNDCIAYEINGNFIFKFPKHSRASINLLNEVTVLKTIHNELSLPIPEVVFTGMPSEMCQMSFAGFTKIKGVPLTPLLLKNLPKQSQDQAAKDLARFLSELHSINISGFKSNLVLDFREKINEDNKKIKKLLSRELKGHQMKKVDDFYRDILDNEIYFKYYPCLIHNDFSSDHILFDTEKNTICGIIDFGDAAISDPDNDFISLMEDDEEYGMEFVSKILNHYKHKDIPTVLEKYMMKEKYWSFEKIIYGKEYGYMDWYEEGLNEIRSIKIK”, the protein production entry is recorded as “not failed”.
